Measured values reported in article doi:10.1101/2020.05.05.078014.

Molecular target: T1, Rhed (RNA-binding heme domain of DGCR8), heme-bound (Homo sapiens, UniProt Q8WYQ5 285-478)
T1 sequence: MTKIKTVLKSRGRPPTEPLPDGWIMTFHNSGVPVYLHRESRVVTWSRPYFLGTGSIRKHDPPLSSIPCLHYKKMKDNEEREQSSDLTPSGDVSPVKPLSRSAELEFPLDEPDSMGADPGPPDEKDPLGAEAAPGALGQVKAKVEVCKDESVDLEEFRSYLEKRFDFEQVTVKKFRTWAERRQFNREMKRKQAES
Assay: EMSA

Binder: GGAGACUGAUUGUCAUAUGUCGUUUGUGGGAUCCGUCUCC (structured_RNA) [pri-miR-340 apical stem-loop fragment]
- Kd: 3.5 µM
